The target of this assay is recombinant VE-cadherin-Fc (UniProt P33151). As to the kind of experiment: atomic force microscopy.

The text below walks through data of article PMC10563049.

For the substance “recombinant VE-cadherin-Fc (from UniProt P33151) (Fc fusion)”, the binding activity (binding probability by AFM) worked out at 61%.
